Results: the supplement of paper PMC7877785
± gives the uncertainty stated by the source.

Experiment: self-splicing fitness, log relative to wild type (ln ratio); higher = more splicing; Tetrahymena group I intron in knt gene, E. coli kanamycin selection, DiMSum; sequences stand for … in CUCUCU…GGAGGGAAAAGUUAUCAGGCAUGCACCUGGUAGCUAGUCUUUAAACCAAUAGAUUGCAUCGGUUUAAAAGGCAAGACCGUCAAAUUGCGGGAAAGGGGUCAACAGCCGUUCAGUACCAAGUCUCAGGGGAAACUUUGAGAUGGCCUUGCAAAGGGUAUGGUAAUAAGCUGACGGACAUGGUCCUAACCACGCAGCCAAGUCCUAAGUCAACAGAUCUUCUGUUGAUAUGGAUGCAGUUCACAGACUAAAUGUCGGUCGGGGAAGAUGUAUUCUUCUCAUAAGAUAUAGUCGGACCUCUCCUUAAUGGGAGCUAGCGGAUGAAGUGAUGCAACACUGGAGCCGCUGGGAACUAAUUUGUAUGCGAAAGUAUAUUGAUUAGUUUUGGAGUACUCGUGGUCG
How it was run: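 The eight P1ex-region nucleotides of an intron in the knt kanamycin-resistance gene on pET-22b(+) were all randomised and the library put into E. coli BL21(DE3). Six replicate transformations were grown overnight at 37°C or 30°C on LB agar with or without 25 μg/mL kanamycin, together with 100 μg/mL carbenicillin, 50 μM IPTG and 0.2% rhamnose. Colonies were pooled and amplicon-sequenced on an Illumina HiSeq 2500. Fitness from DiMSum is the error-weighted combination of wild-type-normalised replicate fold changes, kanamycin over none.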

Row | Sequence | self-splicing fitness (ln) (30 °C) | self-splicing fitness (ln) (37 °C)
1 | UAACAGCAAUAUUACGCACU | -1.26 ± 0.06 | 0.231 ± 0.087
2 | GAGUAGCAAUAUUACGGCUA | -1.11 ± 0.29 | -1.37 ± 0.31
3 | UAAAAGCAAUAUUACGGUUG | -1.53 ± 0.075 | -0.701 ± 0.096
4 | UCGCAGCAAUAUUACGAAGG | -1.85 ± 0.096 | -0.846 ± 0.12
5 | UAUGAGCAAUAUUACGUUCG | -1.45 ± 0.091 | -0.169 ± 0.12
6 | UAAGAGCAAUAUUACGCGGU | -3.3 ± 0.3 | -2.15 ± 0.34
7 | UUGGAGCAAUAUUACGCCCA | -2.38 ± 0.23 | -0.932 ± 0.4
8 | ACGCAGCAAUAUUACGAUAC | -2.56 ± 0.2 | -1.87 ± 0.19
9 | UCGCAGCAAUAUUACGUAGG | -0.74 ± 0.068 | -0.377 ± 0.086
10 | GGAUAGCAAUAUUACGAGAU | -3.46 ± 0.32 | 0.361 ± 0.15
11 | GUGUAGCAAUAUUACGUGGG | -4.25 ± 0.21 | -4.08 ± 0.26
12 | GUAGAGCAAUAUUACGACGA | -1.85 ± 0.15 | -0.21 ± 0.16
13 | UUGGAGCAAUAUUACGGGAA | -3.64 ± 0.38 | -0.82 ± 0.17
14 | UGGAAGCAAUAUUACGGCCA | -0.874 ± 0.21 | -0.244 ± 0.2
15 | GGUUAGCAAUAUUACGGCAG | -1.83 ± 0.19 | -1.43 ± 0.21
16 | CUAAAGCAAUAUUACGUUGG | -2.52 ± 0.12 | -0.891 ± 0.1
17 | UAAGAGCAAUAUUACGCCGG | -2.97 ± 0.31 | -1.72 ± 0.26
18 | GGUAAGCAAUAUUACGAUCG | -0.894 ± 0.1 | 0.451 ± 0.17
19 | AUCAAGCAAUAUUACGAAGC | -3.81 ± 0.43 | –
20 | AGAAAGCAAUAUUACGCACG | -0.407 ± 0.18 | -0.88 ± 0.22
21 | GGGAAGCAAUAUUACGUUUG | -2.72 ± 0.22 | -1.74 ± 0.21

Row | Sequence | self-splicing fitness (ln) (30 °C) | self-splicing fitness (ln) (37 °C)
22 | GAUGAGCAAUAUUACGAACU | -0.431 ± 0.31 | -0.239 ± 0.31
23 | CUUUAGCAAUAUUACGAGCA | -3.14 ± 0.25 | -3.05 ± 0.3
24 | CCAAAGCAAUAUUACGUGGU | -3.39 ± 0.098 | -3.29 ± 0.14
25 | AGUGAGCAAUAUUACGAGUG | -3.75 ± 0.47 | -1.02 ± 0.24
26 | ACUUAGCAAUAUUACGGGUC | -3.35 ± 0.13 | -3.27 ± 0.2
27 | GUCAAGCAAUAUUACGUUUU | -2.8 ± 0.11 | -0.976 ± 0.1
28 | UCAAAGCAAUAUUACGAGUG | -0.846 ± 0.048 | -0.965 ± 0.067
29 | UGAAAGCAAUAUUACGAGAU | -2.93 ± 0.14 | -2.18 ± 0.19
30 | GCGCAGCAAUAUUACGGUUG | -2.53 ± 0.1 | -3.34 ± 0.19
31 | AGCCAGCAAUAUUACGAGUU | -1.84 ± 0.086 | -0.293 ± 0.081
32 | AUCAAGCAAUAUUACGCGAA | -0.924 ± 0.094 | -1.22 ± 0.12
33 | AUUCAGCAAUAUUACGGGUG | -1.71 ± 0.077 | -0.135 ± 0.086
34 | CACGAGCAAUAUUACGGAAG | -3.54 ± 0.21 | -2.32 ± 0.2
35 | ACUAAGCAAUAUUACGGGGU | -4.13 ± 0.28 | -2.2 ± 0.19
36 | CCCCAGCAAUAUUACGGGAC | -3.88 ± 0.18 | -2.12 ± 0.14
37 | GCGCAGCAAUAUUACGUUAG | -4.26 ± 0.2 | -2.26 ± 0.18
38 | CAUUAGCAAUAUUACGAUUG | -1.49 ± 0.077 | -0.759 ± 0.11
39 | UCAUAGCAAUAUUACGCAAC | -3.77 ± 0.39 | -1.48 ± 0.32
40 | UGUAAGCAAUAUUACGUCUC | – | -1.56 ± 0.23
41 | GUUGAGCAAUAUUACGUCAA | -2.76 ± 0.28 | –
42 | UUAAAGCAAUAUUACGGCAC | -1.19 ± 0.1 | -0.195 ± 0.13

Row | Sequence | self-splicing fitness (ln) (30 °C) | self-splicing fitness (ln) (37 °C)
43 | GGUUAGCAAUAUUACGGAGC | -2.27 ± 0.24 | -1.43 ± 0.29
44 | CAAAAGCAAUAUUACGGCCC | -2.01 ± 0.31 | -1.06 ± 0.3
45 | UAUAAGCAAUAUUACGGUGU | -2.97 ± 0.26 | -1.34 ± 0.18
46 | GUACAGCAAUAUUACGCCCC | -1.32 ± 0.2 | -0.26 ± 0.32
47 | CAUUAGCAAUAUUACGGUAG | -0.468 ± 0.062 | -0.027 ± 0.072
48 | UUACAGCAAUAUUACGGGCG | -0.655 ± 0.051 | 0.0547 ± 0.066
49 | UGCCAGCAAUAUUACGGGUA | -2.25 ± 0.15 | -1.24 ± 0.15
50 | GCUAAGCAAUAUUACGCACU | -0.54 ± 0.071 | 0.421 ± 0.11
51 | UCUAAGCAAUAUUACGCAUA | -1.86 ± 0.18 | -2.33 ± 0.25
52 | AUUCAGCAAUAUUACGCCGG | -1.07 ± 0.13 | -0.848 ± 0.19
53 | AGGAAGCAAUAUUACGCUAA | -1.19 ± 0.13 | -1.89 ± 0.27
54 | GGUUAGCAAUAUUACGGACU | – | -1.31 ± 0.23
55 | UCUAAGCAAUAUUACGGCGA | -0.734 ± 0.086 | -0.474 ± 0.092
56 | GGGCAGCAAUAUUACGACAU | -0.411 ± 0.013 | 0.0276 ± 0.033
57 | ACUUAGCAAUAUUACGUGUG | -2.2 ± 0.09 | -1.06 ± 0.087
58 | CUCGAGCAAUAUUACGGAAC | -3.24 ± 0.24 | -1.98 ± 0.25
59 | UGCUAGCAAUAUUACGAUGG | -1.52 ± 0.067 | -0.47 ± 0.088
60 | CUUCAGCAAUAUUACGAUGG | -2.3 ± 0.11 | -1.38 ± 0.15
61 | CUUUAGCAAUAUUACGUCGA | – | -1.96 ± 0.48
